Test results as given in US20230348605A1.

B1: NJT3 (VHH)
VHH: QVQLVETGGGLAQAGGSLRLSCAASGRTLSGYAMGWFRQAPGKEREFVAAISWSGRNTYYDYTVQGRFTISKDNAKNTVNLQMNSLKPEDTAVYYCAVSRSLDEFGDGYEMDYWGDGTQVTVSS
modifications: labelled with Texas Red via sortase-mediated tagging in the ex vivo imaging assay
B2: NJT4 (VHH)
VHH: QVQLVESGGGLVQPGGSLRLSCAASGFTFSSYTMRWYRQAPGKERELVAFIGVAGGSTKYADSVKGRFTISRDNTKNTVYLQMNTLKPEDTAVYYCYAPLTPYWGQGTQVTVSS
modifications: labelled with Texas Red via sortase-mediated tagging in the ex vivo imaging assay
B3: NJT6 (VHH)
VHH: QVQLVETGGDLVQPGGSLRLSCAASGLTLDYYAIGWVRQAPGKEREGVSCITPQDGNTYYDDSVMGRFTILRDNAKNMVYLQMNNLKPEDTAVYFCAAAGALTLDPSEYEYWGQGTQVTVSS
modifications: labelled with Texas Red or 64Cu via sortase-mediated tagging in the imaging assays

Molecular target: purified human TNC protein (human) (UniProt P24821)
Test: BLI

Kd, < 1 pM:
B1
B2
B3
